Assay results as given in publication PMC10396963, “Fibril formation and ordering of disordered FUS LC driven by hydrophobic interactions” (Nature Chemistry, 2023).

Target: the molecule itself
Test: atomic force microscopy; film formed from 1.5 uM FUS LC at the air/PBS interface (pH 7.4), 5 h, deposited on a Si wafer and dried; 20 ± 1 °C

B1: FUS low-complexity domain (FUS LC, 1–163 amino acids) (domain or fragment, human, UniProt P35637 1-163, looked up)
chain: MASNDYTQQATQSYGAYPTQPGQGYSQQSSQPYGQQSYSGYSQSTDTSGYGQSSYSSYGQSQNTGYGTQSTPQGYGSTGGYGSSQSSQSSYGQQSSYPGYGQQPAPSSTSGSYGSSSQSSSYGQPQSGSYSQQPSYGGQQQSYGQQQSYNPPQGYGQQNQYNS
notes: Human FUS (fused in sarcoma), N-terminal QGSY-rich low-complexity domain, amino-acid residues 1-163; For FRAP 5% of the protein carried Cy3 (NHS ester); the AFM and BAM samples were unlabelled; also called fused in sarcoma low-complexity domain; wild-type FUS LC; source: E. coli, purified (solubilised in 8 M urea, Ni-NTA, cleaved with tobacco etch virus protease, exchanged to CAPS pH 11)
B1: binds.
